# T1: APBA2_1, Q99767
# T1 sequence (Q99767 563-664, limits assumed, looked up): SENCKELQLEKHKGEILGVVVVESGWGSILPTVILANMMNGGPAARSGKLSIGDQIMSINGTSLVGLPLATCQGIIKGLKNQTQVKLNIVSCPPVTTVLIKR
# T2: APBA3_1, O96018
# T2 sequence (O96018 389-490, limits assumed, looked up): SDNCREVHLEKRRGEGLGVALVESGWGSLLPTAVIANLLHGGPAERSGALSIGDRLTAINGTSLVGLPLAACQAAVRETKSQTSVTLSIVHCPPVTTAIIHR
# T3: ARHGEF11, O15085
# T3 sequence (O15085 42-136, limits assumed, looked up): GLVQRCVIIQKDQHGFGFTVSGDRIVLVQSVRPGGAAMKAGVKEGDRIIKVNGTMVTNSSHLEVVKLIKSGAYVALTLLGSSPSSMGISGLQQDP
# T4: CARD11, Q9BXL7
# T4 sequence (Q9BXL7 662-765, limits assumed, looked up): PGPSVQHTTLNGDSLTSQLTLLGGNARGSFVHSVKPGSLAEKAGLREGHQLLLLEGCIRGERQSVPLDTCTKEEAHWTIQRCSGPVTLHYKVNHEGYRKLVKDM
# T5: DVL3, Q92997
# T5 sequence (Q92997 244-331, limits assumed, looked up): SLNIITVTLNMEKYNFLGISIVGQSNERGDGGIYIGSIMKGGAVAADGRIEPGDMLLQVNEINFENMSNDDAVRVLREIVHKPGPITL
# T6: FRMPD1, Q5SYB0
# T6 sequence (Q5SYB0 52-145, limits assumed, looked up): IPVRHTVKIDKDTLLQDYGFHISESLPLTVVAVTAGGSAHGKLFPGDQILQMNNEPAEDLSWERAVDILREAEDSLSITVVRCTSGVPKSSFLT
# T7: GRIP1_2, Q9Y3R0
# T7 sequence (Q9Y3R0 145-248, limits assumed, looked up): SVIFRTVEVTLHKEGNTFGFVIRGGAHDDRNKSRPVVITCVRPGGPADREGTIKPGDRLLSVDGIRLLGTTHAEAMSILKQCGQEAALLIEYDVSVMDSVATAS
# T8: MPP6, Q9NZW5
# T8 sequence (Q9NZW5 125-219, limits assumed, looked up): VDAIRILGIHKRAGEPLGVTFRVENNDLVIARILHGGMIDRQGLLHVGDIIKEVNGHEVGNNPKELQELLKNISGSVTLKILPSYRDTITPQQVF
# T9: NHERF3_1, Q5T2W1
# T9 sequence (Q5T2W1 4-100, limits assumed, looked up): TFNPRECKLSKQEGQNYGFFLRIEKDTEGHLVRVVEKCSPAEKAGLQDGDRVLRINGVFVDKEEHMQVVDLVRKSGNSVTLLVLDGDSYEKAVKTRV
# T10: PCLO, Q9Y6V0
# T10 sequence (Q9Y6V0 4491-4600, limits assumed, looked up): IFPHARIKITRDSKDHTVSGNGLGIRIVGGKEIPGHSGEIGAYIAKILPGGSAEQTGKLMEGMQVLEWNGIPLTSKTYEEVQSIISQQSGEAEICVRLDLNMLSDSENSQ
# T11: SNTA1, Q13424
# T11 sequence (Q13424 82-180, limits assumed, looked up): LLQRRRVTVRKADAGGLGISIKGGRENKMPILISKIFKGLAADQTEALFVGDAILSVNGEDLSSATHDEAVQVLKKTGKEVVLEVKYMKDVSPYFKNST
# T12: TIAM2, Q8IVF5
# T12 sequence (Q8IVF5 885-986, limits assumed, looked up): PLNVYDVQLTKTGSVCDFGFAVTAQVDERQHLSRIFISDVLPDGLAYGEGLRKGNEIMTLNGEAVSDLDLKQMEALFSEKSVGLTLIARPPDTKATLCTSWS
# T13: TJP3_3, O95049
# T13 sequence (O95049 375-456, limits assumed, looked up): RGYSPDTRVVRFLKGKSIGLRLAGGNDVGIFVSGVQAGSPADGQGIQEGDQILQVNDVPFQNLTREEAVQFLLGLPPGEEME
# B1: HSPA5, P11021 (peptide)
# chain: EEDTAEKDEL
# Biological target: T1, APBA2_1, Q99767
# Assay: holdup assay
# Set-up: key: below the threshold = too weak to quantify, mostly under pKd 3.1 to 4
# Details: plain residues with an end cap or a label only (N-terminal biotin on a linker: ado-ado)
row,Binder,pKd
1,B1,below the threshold

# Biological target: T2, APBA3_1, O96018
# Assay: holdup assay
# Set-up: key: below the threshold = too weak to quantify, mostly under pKd 3.1 to 4
# Details: plain residues with an end cap or a label only (N-terminal biotin on a linker: ado-ado)
row,Binder,pKd
1,B1,below the threshold

# Biological target: T3, ARHGEF11, O15085
# Assay: holdup assay
# Set-up: key: below the threshold = too weak to quantify, mostly under pKd 3.1 to 4
# Details: plain residues with an end cap or a label only (N-terminal biotin on a linker: ado-ado)
row,Binder,pKd
1,B1,3.56

# Biological target: ARHGEF12, Q9NZN5-2
# Assay: holdup assay
# Set-up: key: below the threshold = too weak to quantify, mostly under pKd 3.1 to 4
# Details: plain residues with an end cap or a label only (N-terminal biotin on a linker: ado-ado)
# Sequence of ARHGEF12, Q9NZN5-2 (Q9NZN5 other isoform, or with tags, fused parts or gaps): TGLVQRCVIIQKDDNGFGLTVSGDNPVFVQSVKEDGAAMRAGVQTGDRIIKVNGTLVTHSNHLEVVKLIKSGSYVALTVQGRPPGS
row,Binder,pKd
1,B1,below the threshold

# Biological target: T4, CARD11, Q9BXL7
# Assay: holdup assay
# Set-up: key: below the threshold = too weak to quantify, mostly under pKd 3.1 to 4
# Details: plain residues with an end cap or a label only (N-terminal biotin on a linker: ado-ado)
row,Binder,pKd
1,B1,below the threshold

# Biological target: CASK, O14936
# Assay: holdup assay
# Set-up: key: below the threshold = too weak to quantify, mostly under pKd 3.1 to 4
# Details: plain residues with an end cap or a label only (N-terminal biotin on a linker: ado-ado)
# Sequence of CASK, O14936 (O14936 487-570): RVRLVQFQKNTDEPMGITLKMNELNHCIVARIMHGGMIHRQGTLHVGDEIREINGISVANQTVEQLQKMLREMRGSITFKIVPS
row,Binder,pKd
1,B1,below the threshold

# Biological target: DLG5_1, Q8TDM6
# Assay: holdup assay
# Set-up: key: below the threshold = too weak to quantify, mostly under pKd 3.1 to 4
# Details: plain residues with an end cap or a label only (N-terminal biotin on a linker: ado-ado)
# Sequence of DLG5_1, Q8TDM6 (Q8TDM6 617-713): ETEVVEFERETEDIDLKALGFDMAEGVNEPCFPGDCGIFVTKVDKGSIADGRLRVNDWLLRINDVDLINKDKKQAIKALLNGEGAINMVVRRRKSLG
row,Binder,pKd
1,B1,below the threshold

# Biological target: T5, DVL3, Q92997
# Assay: holdup assay
# Set-up: key: below the threshold = too weak to quantify, mostly under pKd 3.1 to 4
# Details: plain residues with an end cap or a label only (N-terminal biotin on a linker: ado-ado)
row,Binder,pKd
1,B1,below the threshold

# Biological target: T6, FRMPD1, Q5SYB0
# Assay: holdup assay
# Set-up: key: below the threshold = too weak to quantify, mostly under pKd 3.1 to 4
# Details: plain residues with an end cap or a label only (N-terminal biotin on a linker: ado-ado)
row,Binder,pKd
1,B1,below the threshold

# Biological target: T7, GRIP1_2, Q9Y3R0
# Assay: holdup assay
# Set-up: key: below the threshold = too weak to quantify, mostly under pKd 3.1 to 4
# Details: plain residues with an end cap or a label only (N-terminal biotin on a linker: ado-ado)
row,Binder,pKd
1,B1,below the threshold

# Biological target: GRIP2_3, Q9C0E4
# Assay: holdup assay
# Set-up: key: below the threshold = too weak to quantify, mostly under pKd 3.1 to 4
# Details: plain residues with an end cap or a label only (N-terminal biotin on a linker: ado-ado)
# Sequence of GRIP2_3, Q9C0E4 (Q9C0E4 238-339): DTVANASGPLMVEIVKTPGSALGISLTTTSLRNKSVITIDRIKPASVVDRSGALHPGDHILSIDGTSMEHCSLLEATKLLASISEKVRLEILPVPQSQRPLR
row,Binder,pKd
1,B1,below the threshold

# Biological target: GRIP2_6, Q9C0E4
# Assay: holdup assay
# Set-up: key: below the threshold = too weak to quantify, mostly under pKd 3.1 to 4
# Details: plain residues with an end cap or a label only (N-terminal biotin on a linker: ado-ado)
# Sequence of GRIP2_6, Q9C0E4 (Q9C0E4 648-740): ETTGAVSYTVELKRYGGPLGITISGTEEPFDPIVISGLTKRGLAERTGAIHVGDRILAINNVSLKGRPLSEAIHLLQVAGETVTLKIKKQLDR
row,Binder,pKd
1,B1,below the threshold

# Biological target: HTRA2, O43464
# Assay: holdup assay
# Set-up: key: below the threshold = too weak to quantify, mostly under pKd 3.1 to 4
# Details: plain residues with an end cap or a label only (N-terminal biotin on a linker: ado-ado)
# Sequence of HTRA2, O43464 (O43464 355-458): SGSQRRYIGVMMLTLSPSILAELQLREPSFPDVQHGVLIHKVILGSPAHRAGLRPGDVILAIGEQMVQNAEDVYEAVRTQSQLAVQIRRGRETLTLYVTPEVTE
row,Binder,pKd
1,B1,below the threshold

# Biological target: IL16_1, Q14005
# Assay: holdup assay
# Set-up: key: below the threshold = too weak to quantify, mostly under pKd 3.1 to 4
# Details: plain residues with an end cap or a label only (N-terminal biotin on a linker: ado-ado)
# Sequence of IL16_1, Q14005 (Q14005 210-306): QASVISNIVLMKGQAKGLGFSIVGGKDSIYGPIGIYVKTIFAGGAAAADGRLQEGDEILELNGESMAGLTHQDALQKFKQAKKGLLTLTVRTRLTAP
row,Binder,pKd
1,B1,below the threshold

# Biological target: Inadl_6, Q8NI35
# Assay: holdup assay
# Set-up: key: below the threshold = too weak to quantify, mostly under pKd 3.1 to 4
# Details: plain residues with an end cap or a label only (N-terminal biotin on a linker: ado-ado)
# Sequence of Inadl_6, Q8NI35 (Q8NI35 1058-1167): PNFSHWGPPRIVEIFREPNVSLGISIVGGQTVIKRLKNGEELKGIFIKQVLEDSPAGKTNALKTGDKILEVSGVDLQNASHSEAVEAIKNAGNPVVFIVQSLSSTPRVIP
row,Binder,pKd
1,B1,below the threshold

# Biological target: MAGI2_6, Q86UL8
# Assay: holdup assay
# Set-up: key: below the threshold = too weak to quantify, mostly under pKd 3.1 to 4
# Details: plain residues with an end cap or a label only (N-terminal biotin on a linker: ado-ado)
# Sequence of MAGI2_6, Q86UL8 (Q86UL8 1141-1229): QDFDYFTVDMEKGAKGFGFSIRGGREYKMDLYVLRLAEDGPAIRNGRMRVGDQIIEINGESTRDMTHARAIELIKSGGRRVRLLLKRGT
row,Binder,pKd
1,B1,below the threshold

# Biological target: T8, MPP6, Q9NZW5
# Assay: holdup assay
# Set-up: key: below the threshold = too weak to quantify, mostly under pKd 3.1 to 4
# Details: plain residues with an end cap or a label only (N-terminal biotin on a linker: ado-ado)
row,Binder,pKd
1,B1,below the threshold

# Biological target: T9, NHERF3_1, Q5T2W1
# Assay: holdup assay
# Set-up: key: below the threshold = too weak to quantify, mostly under pKd 3.1 to 4
# Details: plain residues with an end cap or a label only (N-terminal biotin on a linker: ado-ado)
row,Binder,pKd
1,B1,below the threshold

# Biological target: NHERF4_2, Q86UT5
# Assay: holdup assay
# Set-up: key: below the threshold = too weak to quantify, mostly under pKd 3.1 to 4
# Details: plain residues with an end cap or a label only (N-terminal biotin on a linker: ado-ado)
# Sequence of NHERF4_2, Q86UT5 (Q86UT5 220-308): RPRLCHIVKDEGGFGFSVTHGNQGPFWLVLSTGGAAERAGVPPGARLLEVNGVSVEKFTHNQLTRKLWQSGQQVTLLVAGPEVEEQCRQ
row,Binder,pKd
1,B1,below the threshold

# Biological target: NOS1, P29475
# Assay: holdup assay
# Set-up: key: below the threshold = too weak to quantify, mostly under pKd 3.1 to 4
# Details: plain residues with an end cap or a label only (N-terminal biotin on a linker: ado-ado)
# Sequence of NOS1, P29475 (P29475 9-101): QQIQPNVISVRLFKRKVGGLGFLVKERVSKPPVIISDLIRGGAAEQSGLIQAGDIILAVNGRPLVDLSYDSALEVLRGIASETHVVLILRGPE
row,Binder,pKd
1,B1,below the threshold

# Biological target: T10, PCLO, Q9Y6V0
# Assay: holdup assay
# Set-up: key: below the threshold = too weak to quantify, mostly under pKd 3.1 to 4
# Details: plain residues with an end cap or a label only (N-terminal biotin on a linker: ado-ado)
row,Binder,pKd
1,B1,below the threshold

# Biological target: PICK1, Q9NRD5
# Assay: holdup assay
# Set-up: key: below the threshold = too weak to quantify, mostly under pKd 3.1 to 4
# Details: plain residues with an end cap or a label only (N-terminal biotin on a linker: ado-ado)
# Sequence of PICK1, Q9NRD5 (Q9NRD5 17-115): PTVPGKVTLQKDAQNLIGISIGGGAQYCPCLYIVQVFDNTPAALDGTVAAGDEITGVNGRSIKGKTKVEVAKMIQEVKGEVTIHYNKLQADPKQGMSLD
row,Binder,pKd
1,B1,below the threshold

# Biological target: T11, SNTA1, Q13424
# Assay: holdup assay
# Set-up: key: below the threshold = too weak to quantify, mostly under pKd 3.1 to 4
# Details: plain residues with an end cap or a label only (N-terminal biotin on a linker: ado-ado)
row,Binder,pKd
1,B1,below the threshold

# Biological target: T12, TIAM2, Q8IVF5
# Assay: holdup assay
# Set-up: key: below the threshold = too weak to quantify, mostly under pKd 3.1 to 4
# Details: plain residues with an end cap or a label only (N-terminal biotin on a linker: ado-ado)
row,Binder,pKd
1,B1,below the threshold

# Biological target: T13, TJP3_3, O95049
# Assay: holdup assay
# Set-up: key: below the threshold = too weak to quantify, mostly under pKd 3.1 to 4
# Details: plain residues with an end cap or a label only (N-terminal biotin on a linker: ado-ado)
row,Binder,pKd
1,B1,below the threshold
